Experimental data as given in patent US20220185863A1, “COMBINATION THERAPIES” (Shattuck Labs, Inc., priority 2019, published 2022).

B1: TIGIT-Fc-OX40L: chimeric protein: extracellular domain of TIGIT, hinge-CH2-CH3 Fc linker, extracellular domain of OX40L (SEQ ID NO: 60) (protein)
chain: MMTGTIETTGNISAEKGGSIILQCHLSSTTAQVTQVNWEQQDQLLAICNADLGWHISPSFKDRVAPGPGLGLTLQSLTVNDTGEYFCIYHTYPDGTYTGRIFLEVLESSVAEHGARFQIPSKYGPPCPPCPAPEFLGGPSVFLFPPKPKDQLMISRTPEVTCVVVDVSQEDPEVQFNWYVDGVEVHNAKTKPREEQFNSTYRVVSVLTVLHQDWLSGKEYKCKVSSKGLPSSIEKTISNATGQPREPQVYTLPPSQEEMTKNQVSLTCLVKGFYPSDIAVEWESNGQPENNYKTTPPVLDSDGSFFLYSRLTVDKSRWQEGNVFSCSVLHEALHNHYTQKSLSLSLGKIEGRMDQVSHRYPRIQSIKVQFTEYKKEKGFILTSQKEDEIMKVQNNSVIINCDGFYLISLKGYFSQEVNISLHYQKDEEPLFQLKKVRSVNSLMVASLTYKDKVYLNVTTDNTSLDDFHVNGGELILIHQNPGEFCVL
B2: TIGIT-Fc-LIGHT: chimeric protein: extracellular domain of TIGIT, hinge-CH2-CH3 Fc linker, extracellular domain of LIGHT (SEQ ID NO: 61) (protein)
chain: MEWSWVFLFFLSVTTGVHSMMTGTIETTGNISAEKGGSIILQCHLSSTTAQVTQVNWEQQDQLLAICNADLGWHISPSFKDRVAPGPGLGLTLQSLTVNDTGEYFCIYHTYPDGTYTGRIFLEVLESSVAEHGARFQIPSKYGPPCPPCPAPEFLGGPSVFLFPPKPKDQLMISRTPEVTCVVVDVSQEDPEVQFNWYVDGVEVHNAKTKPREEQFNSTYRVVSVLTVLHQDWLSGKEYKCKVSSKGLPSSIEKTISNATGQPREPQVYTLPPSQEEMTKNQVSLTCLVKGFYPSDIAVEWESNGQPENNYKTTPPVLDSDGSFFLYSRLTVDKSRWQEGNVFSCSVLHEALHNHYTQKSLSLSLGKIEGRMDLQLHWRLGEMVTRLPDGPAGSWEQLIQERRSHEVNPAAHLTGANSSLTGSGGPLLWETQLGLAFLRGLSYHDGALVVTKAGYYYIYSKVQLGGVGCPLGLASTITHGLYKRTPRYPEELELLVSQQSPCGRATSSSRVWWDSSFLGGVVHLEAGEKVVVRVLDERLVRLRDGTRSYFGAFMV

What was measured:
[1] = test system: tumors; assay: In vivo anti-tumor activity of TIGIT-Fc-OX40L chimeric protein and anti-CTLA-4 antibody in tumor-inoculated mice
Protocol: The in vivo ability of combinations of the TIGIT-Fc-OX40L chimeric protein with anti-CTLA-4 antibodies (FIG. 3A to FIG. 3C) to target and treat tumors were determined.
(§1) Mice were inoculated with tumors and were treated with a vehicle, an antibody, the TIGIT-Fc-OX40L chimeric protein, or combinations of the TIGIT-Fc-OX40L chimeric protein and an anti-CTLA-4 antibody; in the combinations, the TIGIT-Fc-OX40L chimeric protein was administered before the antibody, the TIGIT-Fc-OX40L chimeric protein was administered after the antibody, or the TIGIT-Fc-OX40L chimeric protein was administered with the antibody. See, FIG. 3A for the dose schedules.
FIG. 3C includes data relevant to the graphs of FIG. 3A and FIG. 3B.

[2] = test system: tumors; assay: In vivo anti-tumor activity of TIGIT-Fc-OX40L chimeric protein and anti-PD-1 antibody in tumor-inoculated mice
Protocol: The in vivo ability of combinations of the TIGIT-Fc-OX40L chimeric protein with anti-PD-1 antibodies (FIG. 4A to FIG. 4D) to target and treat tumors were determined.
as §1, with “anti-PD-1” for “anti-CTLA-4”, “antibody.” for “antibody. See, FIG. 3A for the dose schedules.”
FIG. 4C and FIG. 4D include data relevant to the graphs of FIG. 4A and FIG. 4B.

[3] = test system: tumor infiltrating lymphocytes (TIL) of CT26 (colorectal carcinoma) tumors; assay: Immune phenotyping of tumor infiltrating lymphocytes (TIL) by flow cytometry; type: in vivo, BALB/C mice; conditions: IP days 0, 3, 6; 300 mg ARC, 100 mg anti-PD-1; tumor collected day 7
Description: FIG. 6A to FIG. 6G show the results of immune phenotyping of the tumor infiltrating lymphocytes (TIL) in BALB/C mice harboring CT26 (colorectal carcinoma) tumor allografts treated with ARC (TIGIT-Fc-OX40L or TIGIT-Fc-LIGHT) alone or the combination with anti-PD-1 (clone RMP1-14) antibody. The fractions (expressed as percentages) of total CD8^+ cells (FIG. 6A), total Perforin CD8^+ cells (FIG. 6B), total IFNγ^+ CD8^+ cells (FIG. 6C), total AH1-tetramer CD8^+ cells (antigen-specific CD8^+ cells) (FIG. 6D), total CD4±cells (FIG. 6E), total NKP46^+ NK cells (FIG. 6F) and total IFNγ±(NKP46^+ NK) cells (FIG. 6G) in the indicated cell populations in the dissociated tumor tissue as determined by flow cytometry analyses.
BALB/C mice were inoculated with CT26 (colorectal carcinoma) tumors, and when starting tumor volumes reached 30-60 mm^3 (indicating day 0), treatment was begun. Mice were treated via intraperitoneal (IP) injection on days 0, 3, and 6 with […] of either ARC (TIGIT-Fc-OX40L or TIGIT-Fc-LIGHT) or the combination of each ARC with […] of anti-PD-1 (clone RMP1-14). On day 7, mice were euthanized, tumor tissue was collected and dissociated, and analyzed by flow cytometry and calculated as percent cell types. The total % of CD8+ T cells detected in the tumor are similar between treatment groups (FIG. 6A).
The immunodominant CD8+ T cell response against CT26 carcinoma cells is directed against a tumor/self-antigen, GP70423-431, also known as AH1. To evaluate the T cell response against CT26, total AH1-tetramer CD8^+ cells were quantitated.
Other relevant cell types, including total % of CD4+ T cells, NKP46^+ NK cells, including the total IFNγ±NKP46^+ NK cells in the tumors were also quantitated. […] The IFNγ±cells were quantitated among NKP46^+ NK cells.

[4] = test system: CT26 tumor; assay: In vivo anti-tumor activity of TIGIT-Fc-LIGHT chimeric protein and anti-PD1 antibody in mice challenged with CT26 tumor; set-up: species or system mouse; conditions: monotherapy on days 1, 3, and 6, compared to vehicle only-treated mice
Description: FIG. 5B is a Kaplan Meyer plot of survival and statistics of the CT26 tumor experiment of FIG. 5A. […] FIG. 5C and FIG. 5D includes data relevant to the graphs of FIG. 5A and FIG. 5B.

[5] = administered on days 7, 9, and 11, compared to vehicle only-treated mice and to days 12, 14, 16 schedule
[6] = administered on days 12, 14, and 16, compared to vehicle only-treated mice
[7] = compared to the dosing regimen-matched αCTLA antibody-treated mice
[8] = compared to the dosing regimen-matched αPD-1 antibody-treated mice

Molecule | survival [1, 5] | tumor development [1, 5] | survival [1, 6] | tumor development [1, 6] | survival [1, 7] | tumor development [1, 7] | survival [2, 5] | tumor development [2, 5] | survival [2, 6] | tumor development [2, 6] | survival [2, 8] | tumor development [2, 8] | total AH1-tetramer CD8+ cells among the total CD8+ cells [3] | total CD4+ cells among the total mononuclear cells [3] | total IFNγ+ CD8+ cells among the total CD8+ cells [3] | total IFNγ+ cells among the total NKP46+ NK cells [3] | total NKP46+ NK cells among the total mononuclear cells [3] | total Perforin CD8+ cells among the total CD8+ cells [3] | survival [4] | tumor development [4]
B1 | extended survival | slower tumor development | extended survival | slower tumor development | extended survival | slower tumor development | extended survival | slower tumor development | extended survival | slower tumor development | extended survival | slower tumor development | increased | increased | increased | increased | increased | increased | – | –
B2 | – | – | – | – | – | – | – | – | – | – | – | – | increased | increased | increased | increased | increased | increased | extended survival | slower tumor development
